The values that follow are results of earlier work, collected in paper PMC8179794.

Where two headings read alike, the source gives them in different places.

Among the targets are IL-9R (Homo sapiens) (UniProt Q01113); IL-2Rα (Homo sapiens) (UniProt P01589); IL-15Rα (Homo sapiens) (UniProt Q13261); IL-21R (Homo sapiens) (UniProt Q9HBE5).
The target of data set [1] is IL-2Rβ (Homo sapiens) (UniProt P14784).
The target is the same in data set [2]. This is another data set of the same source.

Sequence of UniProt P14784 (P14784 27-240): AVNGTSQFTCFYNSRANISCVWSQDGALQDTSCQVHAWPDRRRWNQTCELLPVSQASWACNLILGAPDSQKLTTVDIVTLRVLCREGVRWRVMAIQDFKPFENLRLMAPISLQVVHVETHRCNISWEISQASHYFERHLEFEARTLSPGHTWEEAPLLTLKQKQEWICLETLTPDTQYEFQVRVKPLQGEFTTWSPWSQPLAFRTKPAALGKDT
Sequence of UniProt Q9HBE5 (Q9HBE5 20-232): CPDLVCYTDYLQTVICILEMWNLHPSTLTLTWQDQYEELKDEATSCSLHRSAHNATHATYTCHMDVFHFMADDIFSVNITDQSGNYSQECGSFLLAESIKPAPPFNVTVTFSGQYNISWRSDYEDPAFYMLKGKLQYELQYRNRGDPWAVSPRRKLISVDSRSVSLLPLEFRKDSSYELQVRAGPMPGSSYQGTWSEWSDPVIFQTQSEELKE
Sequence of UniProt Q13261 (Q13261 31-205): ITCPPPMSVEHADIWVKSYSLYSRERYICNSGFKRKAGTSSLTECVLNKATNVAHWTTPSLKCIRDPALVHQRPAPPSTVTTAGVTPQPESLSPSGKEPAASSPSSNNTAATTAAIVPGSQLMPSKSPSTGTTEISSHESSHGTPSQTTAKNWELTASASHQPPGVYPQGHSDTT
Sequence of UniProt Q01113 (Q01113 41-270): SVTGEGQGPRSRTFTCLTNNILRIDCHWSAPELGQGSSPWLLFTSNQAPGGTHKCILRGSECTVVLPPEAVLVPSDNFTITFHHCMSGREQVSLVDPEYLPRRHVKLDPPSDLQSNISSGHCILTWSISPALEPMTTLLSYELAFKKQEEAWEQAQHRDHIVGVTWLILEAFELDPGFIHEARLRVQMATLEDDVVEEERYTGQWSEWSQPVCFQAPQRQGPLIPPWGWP
Sequence of UniProt P01589 (P01589 22-240): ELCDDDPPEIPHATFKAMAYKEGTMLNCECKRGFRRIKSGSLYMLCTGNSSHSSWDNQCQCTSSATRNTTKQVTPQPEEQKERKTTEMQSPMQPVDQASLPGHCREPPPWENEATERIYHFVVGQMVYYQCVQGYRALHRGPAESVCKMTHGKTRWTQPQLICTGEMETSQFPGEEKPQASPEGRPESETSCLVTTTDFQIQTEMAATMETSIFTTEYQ

As for IL-9 (from UniProt P15248), the dissociation constant (Kd) with IL-9R (Homo sapiens) is 0.1 nM. IL-2 (from UniProt P60568): the Kd with IL-2Rα (Homo sapiens) was 10 nM; in the data set with IL-2Rβ (Homo sapiens) [1], 144 nM.

As for IL-15 (from UniProt P40933), the dissociation constant (Kd) with IL-2Rβ (Homo sapiens) [2] was 438 nM; in the data set with IL-15Rα (Homo sapiens), 0.065 nM.

For IL-21 (from UniProt Q9HBE4), the Kd with IL-21R (Homo sapiens) is 0.07 nM.
